The target of the assay is CD52 (human) (UniProt P31358). As to the kind of experiment: cell-based or functional assay.

CAMPATH (alemtuzumab) (antibody): the depletion of infused CD4CAR T cells in mouse blood, 0.1 mg/kg CAMPATH, 6 h and 48 h is more than 95%.
